Reference: PMC8729259 (RSC Chemical Biology, 2021)

Molecular target: T1, His-SUMO-tagged SARS-CoV-2 nsp14 N-terminal ExoN domain (residues 1 to 289) (SARS-CoV-2)
T1 chain: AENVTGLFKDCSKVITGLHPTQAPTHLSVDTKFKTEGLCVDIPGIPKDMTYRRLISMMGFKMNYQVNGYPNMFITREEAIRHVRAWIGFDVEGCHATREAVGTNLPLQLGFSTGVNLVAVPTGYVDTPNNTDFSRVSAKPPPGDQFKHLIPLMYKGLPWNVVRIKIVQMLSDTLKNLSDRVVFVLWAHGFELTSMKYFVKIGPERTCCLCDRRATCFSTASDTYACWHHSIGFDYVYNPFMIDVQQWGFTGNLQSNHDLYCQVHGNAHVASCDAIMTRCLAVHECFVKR
Assay: MST
Details: both partners purified

B1: SARS-CoV-2 non-structural protein 10 (nsp10), full-length, without affinity tag (natural protein)
chain: AGNATEVPANSTVLSFCAFAVDAAKAYKDYLASGGQPITNCVKMLCTHTGTGQAITVTPEANMDQESFGGASCCLYCRCHIDHPNPKGFCDLKGKYVQIPTTCANDPVGFTLKNTVCTVCGMWKGYGCSCDQLREPMLQ
Work on B1 yielded a Kd of 900 ± 300 nM.
